Test results reported in PMC6921966 (Frontiers in Immunology, 2019).
Changes are numbered by the printed parent chain.

Assays:
human H3N2 M2e peptide [1] = biological target: T1, human H3N2 M2e peptide (Influenza A virus, human H3N2 consensus); assay: ELISA; conditions: both partners purified
T1 chain: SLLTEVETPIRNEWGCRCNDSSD

[2] = biological target: T2, mouse FcγRIV on transfected HEK293T cells (Mus musculus, UniProt A0A0B4J1G0); assay: flow cytometry on cells; conditions: one partner purified
T2 construct: also called FcγRIV transfected cells

[3] = biological target: M2 of A/Puerto Rico/8/1934 (H1N1) on infected cells (Influenza A virus A/Puerto Rico/8/1934 …, UniProt P06821); assay: flow cytometry on cells; conditions: one partner purified
[4] = biological target: M2 of A/Udorn/307/1972 (H3N2) on infected cells (influenza A virus A/Udorn/307/1972 …, UniProt P0DOF5); assay: flow cytometry on cells; conditions: one partner purified
[5] = biological target: M2 of A/Swine/Ontario/42729A/2001 (H3N3) on infected cells (Influenza A virus …, UniProt Q64HP7, strain); assay: flow cytometry on cells; conditions: one partner purified
human H3N2 M2e peptide [6] = biological target: T1, human H3N2 M2e peptide; assay: ITC; […] (300 μM) […] (30 μM) in PBS; […]; conditions: both partners purified

Chain of M2 of A/Udorn/307/1972 (H3N2) on infected cells (P0DOF5 whole entry): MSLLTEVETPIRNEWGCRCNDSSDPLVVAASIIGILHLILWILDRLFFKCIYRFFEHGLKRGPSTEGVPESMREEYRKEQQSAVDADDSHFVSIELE
T2 sequence (A0A0B4J1G0 21-249): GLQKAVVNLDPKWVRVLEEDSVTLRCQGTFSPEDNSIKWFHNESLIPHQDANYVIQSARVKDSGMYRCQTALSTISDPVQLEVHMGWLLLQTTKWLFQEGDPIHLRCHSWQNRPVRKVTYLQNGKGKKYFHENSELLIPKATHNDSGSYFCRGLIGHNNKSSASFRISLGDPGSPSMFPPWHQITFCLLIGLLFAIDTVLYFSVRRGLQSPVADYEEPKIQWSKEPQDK
Chain of M2 of A/Puerto Rico/8/1934 (H1N1) on infected cells (P06821 whole entry): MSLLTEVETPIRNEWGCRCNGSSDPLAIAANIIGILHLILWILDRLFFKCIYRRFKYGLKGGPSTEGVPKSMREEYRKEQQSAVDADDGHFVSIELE

B1: M2e-VHH-10m (VHH)
VHH: QVQLQESGGGLVQAGESLSLSCAASGLAFDDYVIGWYRQAPGKGREGLSCMRLSNGAIMYGPSVKGRFTMSSDNAKSTFFLQMTRLIPEDTAVYYCGAEKHDVNGCGFDVAYWGQGTQVTVSS
notes: not shown: His6, C-terminal, kept
B1: binds (human H3N2 M2e peptide [1]).

B2: FcγRIV-VHH-7m (VHH)
VHH: QVQLQESGGGLVQAGGSLRLSCAASGFTVDDYSIGWFRQAPGKEREGVSCISIRDGSTGYTDPVKGRFTISSDNAKNMVYLQMNMLKPEDTAVYYCAGDIYCSNDDVGVGPYDYWGQGTQVTVSS
notes: also called FcgRIV-VHH-7m; FcγRIV-specific VHH
B2: binds [2].

B3: M2e-VHH-23m (VHH)
VHH: QVQLQESGGGLVQTGGSLRLSCAFSGFTSDDYVIGWFRQAPGKGRQGVSCIRLSGGGTIYADSAKGRFTVSADNAKKTVYLQMTRLKPEDTAVYYCGAERYNVEGCGYDVAYWGKGTQVTVSS
notes: also called M2e-VHH-m23; M1e- VHH-23m; not shown: His6, C-terminal, kept
With B3 the Kd [3] was 13.6 nM, the binding result [4] was “binds” and the binding result [5] was “no binding (tested: 20 μg/ml)”. For the same binder, the Kd (human H3N2 M2e peptide [6]) was 730 nM and the “stoichiometry N” value (human H3N2 M2e peptide [6]) was 1.

B4: M2e-VHH-66m (VHH)
VHH: B3 VHH with T28I, V70I, R85S, Y101H
notes: as for B1
B4: binds (human H3N2 M2e peptide [1]).
